Where a SMILES comes first, the peptide text is derived from it. Where no end group is shown, it is not given here. The star is where a group is joined. X1 = CC1(C)C(/C=C/C=C/C=C/C=C2/N(CCCCCC(=O)*)c3ccc4ccccc4c3C2(C)C)=[N+](CCCCS(=O)(=O)[O-])c2ccc3ccccc3c21; Tide Fluor 8WS = fluorophore acid, coupled by amide to the N-terminal amine
How the values were obtained:
[1] = Whole-body and ventral fluorescent imaging of biodistribution and clearance; assay type: in vivo, mice
Text: (§1) The IVIS Spectrum In vivo Imaging System and Living Image analysis software, (Perkin Elmer, Hopkinton, MA, USA) were used for acquisition and analysis of mouse images. Prior to the experiment, mice were weighed, and baseline images acquired using the appropriate filter sets and the autoexposure setting. Three filter sets for excitation/emission were used: 745 nm/800 nm, 745 nm/820 nm, 745 nm/840 nm. The filter set showing highest fluorescence intensity for a fluorophore was used throughout for that dye. For ICG, 745 nm/820 nm was used and for IRDye® 800CW and Tide Fluor™ 8WS, 745 nm/800 nm was used. Agent stocks were diluted in saline or PBS to ˜100 μM and the volume needed for the desired dose of 300 nmol/kg or 400 nmol/kg calculated. Doses were loaded into polyurethane tubing and connected to a 1 mL syringe as previously described. Mice were anesthetized in an induction chamber with 2% isoflurane-oxygen and moved onto a 37° C. heated platform with a nose cone. 26-gauge veterinary catheters were placed in each tail and the preloaded tubing was connected. Agents were injected over 30 sec, catheters were removed, and animals placed in the prepared Spectrum imaging chamber. Images were acquired beginning 10 min after injecting the agents. For SBK2-CCLE-IR800 and Scram-CCLE-IR800, images were acquired every 10 min for 60 min. For the ICG-labeled and TF8WS-labeled peptides, images were acquired at 10 min, 30 min, 1 h, 2 h, 4 h, 8 h, and 24 h. At the end of the imaging time, the animals were euthanized by CO2 asphyxiation, and the tumor and other organs excised and imaged on the Spectrum.

[2] = Ex vivo fluorescence in excised kidneys, spleen and liver; set-up: species or system mice; details: 24 h; for p-value, average radiant efficiency of excised kidney vs SBK2-ICG / p-value, average radiant efficiency of excised kidney vs Scram-CLE-ICG / p-value, average radiant efficiency of excised kidney vs Scram-ICG / p-value, average radiant efficiency of excised liver vs SBK2-ICG / p-value, average radiant efficiency of excised liver vs Scram-CLE-ICG / p-value, average radiant efficiency of excised liver vs Scram-ICG / p-value, average radiant efficiency of excised spleen vs SBK2-ICG / p-value, average radiant efficiency of excised spleen vs Scram-CLE-ICG / p-value, average radiant efficiency of excised spleen vs Scram-ICG / p-value, average radiant efficiency of excised kidney vs SBK2-CLE-ICG / p-value, average radiant efficiency of excised liver vs SBK2-CLE-ICG / p-value, average radiant efficiency of excised spleen vs SBK2-CLE-ICG: ICG-labeled agents 300 nmol/kg, ICG 400 nmol/kg, Welch's t-test
Text: as §1
(§2) Living Image analysis software was used for region of interest (ROI) analysis of the optical data. Images acquired for each time point consist of a fluorescent image superimposed on a photographic image. Binning was set to 1 and in vivo tumor ROIs were manually drawn based on contours visible in the black and white photograph for each timepoint. After outlining the tumor ROIs, fluorescence was measured with the built-in Spectrum function. For excised tumors, kidneys, spleen and liver, ROIs were drawn around the perimeter of the tumor or organ.
(§3) LivingImage software measures fluorescence intensity in units of radiant efficiency. For these analyses, average radiant efficiency measurements in (photons/s/cm^2/steradian)/(μW/cm^2) were used for further comparisons to account for differences in tumor and organ size. GraphPad Prism 9 was used for plots and statistical analyses. Where indicated, means for pairs of agents were compared using a two-tailed t-test with Welch's correction and statistical significance was assumed at p<0.05. Welch's correction was used to eliminate assumptions about variance between the groups being compared.

[3] = test system: LN-229 glioma flank tumor; experiment: In vivo fluorescent imaging of tumor signal in LN-229 flank tumor-bearing nude mice; details: 400 nmol/kg
Text: All applicable institutional and/or NIH guidelines for the care and use of animals were followed. The Case Western Reserve University Institutional Animal Care and Use Committee reviewed and approved the animal protocols. Outbred homozygous female nude mice (Fox1^nu/Fox1^nu) were purchased from Jackson Laboratory, Bar Harbor, ME, USA. Details of the human glioblastoma LN-229 cell line have been described previously. LN-229 cells express the PTPμ biomarker and have been used in previous studies for evaluating PTPμ-targeted agents using different imaging modalities. Flank tumors were started in the right flank of mice at approximately 7 weeks of age by injecting a mixture of 2×10^6 cells and Matrigel® Matrix (Corning®, Corning Inc., Corning, NY, USA). Experiments were performed in mice 4 to 8 weeks after implanting the tumors.
as §1, §2, §3

Molecule | p-value, average radiant efficiency of excised kidney vs SBK2-ICG [2] | p-value, average radiant efficiency of excised kidney vs Scram-CLE-ICG [2] | p-value, average radiant efficiency of excised kidney vs Scram-ICG [2] | p-value, average radiant efficiency of excised liver vs SBK2-ICG [2] | p-value, average radiant efficiency of excised liver vs Scram-CLE-ICG [2] | p-value, average radiant efficiency of excised liver vs Scram-ICG [2] | p-value, average radiant efficiency of excised spleen vs SBK2-ICG [2] | p-value, average radiant efficiency of excised spleen vs Scram-CLE-ICG [2] | p-value, average radiant efficiency of excised spleen vs Scram-ICG [2] | p-value, average radiant efficiency of excised kidney vs SBK2-CLE-ICG [2] | p-value, average radiant efficiency of excised liver vs SBK2-CLE-ICG [2] | p-value, average radiant efficiency of excised spleen vs SBK2-CLE-ICG [2] | also measured
CC1(C)C(=CC=C2CCCC(C=CC3=[N+](CCCCCC(=O)[O-])c4ccc(S(=O)(=O)[O-])cc4C3(C)C)=C2Oc2ccc(S(=O)(=O)[O-])cc2)N(CCCCS(=O)(=O)[O-])c2ccc(S(=O)(=O)[O-])cc21.[Na+].[Na+].[Na+].[Na+] [IRDye® 800CW] |  |  |  |  |  |  |  |  |  |  |  |  | clearance compared to the peptide-containing agents ([1]; dye only, data not shown): cleared more slowly; overall body fluorescence compared to IRDye 800CW-labeled peptides at the same dose ([1]; dye only, data not shown): more overall fluorescence throughout the body
CC(C)C[C@H](NC(=O)[C@@H](NC(=O)[C@H](CC(N)=O)NC(=O)[C@@H](NC(=O)[C@H](CCC(N)=O)NC(=O)[C@H](CCC(=O)O)NC(=O)[C@H](Cc1c[nH]c2ccccc12)NC(=O)[C@H](CC(N)=O)NC(=O)[C@H](Cc1ccccc1)NC(=O)[C@H](CC(=O)O)NC(=O)[C@H](CC(=O)O)NC(=O)CNC(=O)[C@H](CCC(=O)O)NC(=O)CNC(=O)[C@H](CO)NC(=O)CNC(=O)CNC(=O)[C@H](CO)NC(=O)CNC(=O)CNC(=O)CCCCCN1/C(=C/C=C/C=C/C=C/C2=[N+](CCCCS(=O)(=O)[O-])c3ccc4ccccc4c3C2(C)C)C(C)(C)c2c1ccc1ccccc21)C(C)C)[C@@H](C)O)C(=O)N[C@H](C(=O)N[C@@H](CCCCN)C(=O)N1CCC[C@H]1C(=O)N[C@H](C(=O)N[C@@H](CO)C(=O)N[C@@H](CC(=O)O)C(=O)O)[C@@H](C)O)[C@@H](C)O [SBK2-CLE-ICG] (X1-GGSGGSGEGDDFNWEQVNTLTKPTSD-OH) | <0.001 | 0.034 | ns | <0.001 | ns | ns | <0.001 | 0.015 | ns |  |  |  | clearance compared to SBK2-ICG ([1]; mouse, in vivo): cleared more rapidly
CC(C)C[C@H](NC(=O)[C@@H](NC(=O)[C@H](CC(N)=O)NC(=O)[C@@H](NC(=O)[C@H](CCC(N)=O)NC(=O)[C@H](CCC(=O)O)NC(=O)[C@H](Cc1c[nH]c2ccccc12)NC(=O)[C@H](CC(N)=O)NC(=O)[C@H](Cc1ccccc1)NC(=O)[C@H](CC(=O)O)NC(=O)[C@H](CC(=O)O)NC(=O)CNC(=O)[C@H](CCC(=O)O)NC(=O)CNC(=O)CCCCCN1/C(=C/C=C/C=C/C=C/C2=[N+](CCCCS(=O)(=O)[O-])c3ccc4ccccc4c3C2(C)C)C(C)(C)c2c1ccc1ccccc21)C(C)C)[C@@H](C)O)C(=O)N[C@H](C(=O)N[C@@H](CCCCN)C(=O)N1CCC[C@H]1C(=O)N[C@H](C(=O)N[C@@H](CO)C(=O)N[C@@H](CC(=O)O)C(=O)O)[C@@H](C)O)[C@@H](C)O [SBK2-ICG] (X1-GEGDDFNWEQVNTLTKPTSD-OH) |  | <0.001 | <0.001 |  | <0.001 | <0.001 |  | <0.001 | <0.001 | <0.001 | <0.001 | <0.001 | 
CC(C)C[C@H](NC(=O)[C@H](CC(=O)O)NC(=O)[C@H](CC(N)=O)NC(=O)[C@H](CC(=O)O)NC(=O)[C@@H](NC(=O)CNC(=O)[C@@H](NC(=O)[C@H](CCC(=O)O)NC(=O)[C@@H]1CCCN1C(=O)[C@H](CCC(N)=O)NC(=O)[C@@H](NC(=O)[C@H](Cc1ccccc1)NC(=O)CNC(=O)[C@H](CO)NC(=O)CNC(=O)CNC(=O)[C@H](CO)NC(=O)CNC(=O)CNC(=O)CCCCCN1/C(=C/C=C/C=C/C=C/C2=[N+](CCCCS(=O)(=O)[O-])c3ccc4ccccc4c3C2(C)C)C(C)(C)c2c1ccc1ccccc21)[C@@H](C)O)[C@@H](C)O)[C@@H](C)O)C(=O)N[C@@H](Cc1c[nH]c2ccccc12)C(=O)N[C@@H](CO)C(=O)N[C@H](C(=O)N[C@@H](CC(=O)O)C(=O)N[C@@H](CC(N)=O)C(=O)N[C@@H](CCC(=O)O)C(=O)N[C@@H](CCCCN)C(=O)O)C(C)C [Scram-CLE-ICG] (X1-GGSGGSGFTQPETGTDNDLWSVDNEK-OH) | <0.001 |  | ns | <0.001 |  | ns | <0.001 |  | ns | 0.034 | ns | 0.015 | 
CC(C)C[C@H](NC(=O)[C@H](CC(=O)O)NC(=O)[C@H](CC(N)=O)NC(=O)[C@H](CC(=O)O)NC(=O)[C@@H](NC(=O)CNC(=O)[C@@H](NC(=O)[C@H](CCC(=O)O)NC(=O)[C@@H]1CCCN1C(=O)[C@H](CCC(N)=O)NC(=O)[C@@H](NC(=O)[C@H](Cc1ccccc1)NC(=O)CNC(=O)CCCCCN1/C(=C/C=C/C=C/C=C/C2=[N+](CCCCS(=O)(=O)[O-])c3ccc4ccccc4c3C2(C)C)C(C)(C)c2c1ccc1ccccc21)[C@@H](C)O)[C@@H](C)O)[C@@H](C)O)C(=O)N[C@@H](Cc1c[nH]c2ccccc12)C(=O)N[C@@H](CO)C(=O)N[C@H](C(=O)N[C@@H](CC(=O)O)C(=O)N[C@@H](CC(N)=O)C(=O)N[C@@H](CCC(=O)O)C(=O)N[C@@H](CCCCN)C(=O)O)C(C)C [Scram-ICG] (X1-GFTQPETGTDNDLWSVDNEK-OH) | <0.001 | ns |  | <0.001 | ns |  | <0.001 | ns |  | ns | ns | ns | clearance compared to either of the CLE-containing agents ([1]; 400 nmol/kg, 24 h): clear more slowly
SBK2-TF8WS: Tide Fluor 8WS conjugated via amide to N-terminus of SBK2 peptide (SEQ ID NO: 5) ({Tide Fluor 8WS}-GEGDDFNWEQVNTLTKPTSD) |  |  |  |  |  |  |  |  |  |  |  |  | tumor signal at 24 h (not specific for PTPμ) [3]: high tumor-specific signal; difference in in vivo tumor average radiant efficiency vs Scram-TF8WS ([3]; at any time out to 24 h): No significant differences; specific tumor labeling ([3]; versus Scrambled control agents): no specific tumor labeling; difference in average radiant efficiency in kidney, spleen, or liver vs Scram-TF8WS ([2]; 400 nmol/kg): no significant differences
Scram-TF8WS: Tide Fluor 8WS conjugated to N-terminus of Scrambled control peptide (SEQ ID NO: 48) ({Tide Fluor 8WS}-GFTQPETGTDNDLWSVDNEK) |  |  |  |  |  |  |  |  |  |  |  |  | tumor signal at 24 h (not specific for PTPμ) [3]: high tumor-specific signal
